This data set can be described thus: yeast display, Sf9 membrane polyspecificity reagent, FACS + sequencing; frameworks hold sequencing errors. The method, boiled down: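 Using colony PCR, genes from sorted yeast display clones were amplified, then sequenced on MiSeq at 2 × 250 and filtered by CDR length. The clones had been stained with 10% biotinylated, detergent-solubilized Sf9 membrane reagent for 1 hour at 4 °C and sorted by FACS into low and high (top ~1%) gates on anti-HA and streptavidin fluorescence. Polyreactivity labels come from the gate of origin.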
Turning to “QVQLVESGGGLVQAGGSLRLSCAASGIIFRYYARVWYRQAPGKEREFVAAINYSGGSTYYADSVKGRFTISRDTAKYSVYLQMNSLKPEDTAVYYCAARSYTYTAPIYGYWGQGTQVTVSS”, the “polyreactivity (PSR sort gate)” value was “high polyreactivity”. The value for “QVQLVESGGGLVQAGGSLRLSCAASGIIFSFYAMGWYRQAHGKERELVADITLSGGRTYYADSVKGRFTISRDNAKNTVYLQMNSLKPEDTAVYYCNADTYERGDYWGQGTQVTVSS” was “high polyreactivity”; that for “QVQLVESGGGLVQAGGSLRLSCAASGIIFSINAMGWYRQAPGKERELVAAISRSGGSTNYADSVKGRFTISRDNAKNTVYLQMNSLKPEDTAVYYCATVHRYSVWSHNYWGQGTQVTVSS” was “high polyreactivity”; that for “QVQLVESGGGLVQAGGSLRLSCAASGIIFSLYAMGWYRQAPGKERELVAAISASDGSTYYAVSVKGRFTISRDNAKNTVYLQMNSLKPEDTAVYYCAADSRPTQEYDYWGQGTQVTVSS” was “low polyreactivity”. As for “QVQLVESGGGLVQAGGSLRLSCAASGIIFSLYVMGWYRQAPGKERELVAAIRSGGSTYYADSVKGRFTISRDNAKNTVYLQMNSLKPEDTAGDYCAARVRSGTGVGFDYWGQGTQVTVSS”, the “polyreactivity (PSR sort gate)” value was “high polyreactivity”.

Take “QVQLVESGGGLVQAGGSLRLSCAASGIIFSNYAMGWYRQAPGKERELVAAITRSGGRTYYADSVKGRFTISRDNAKNTVYLQMNSLKPEDTAVYYCAATGRSGVLSSYYYWGQGTQVTVSS”: the “polyreactivity (PSR sort gate)” value is recorded as “high polyreactivity”.

As for “QVQLVESGGGLVQAGGSLRLSCAASGIIFSPNAMGWYRQAPGKEMELVAGISSGGSTYYADSVKGRFTISRDNAKNTVYFQMNSLKPEDTAVYYCNRGWAHSNAKFDYWGQGTQVTVSS”, the “polyreactivity (PSR sort gate)” value is “high polyreactivity”. Next, “QVQLVESGGGLVQAGGSLRLSCAASGIIFSPNAMGWYRQAPGKERELVAGISSGGSTYYADSVKGRFTLSRDNAKNTVYLQMNSLKPEDTAVYYCAVRSRIFGSWYGYGYWGQGTQVTVSS”: “high polyreactivity”. The value for “QVQLVESGGGLVQAGGSLRLSCAASGIIFSQYAMGWYRQAPGKERELVATITSRGASTYYADSVKGRFTISRDNAKNTVYLQMNSLKPEDTAVYYCAATVRRRYERYNYWGQGTQVTVSS” was “high polyreactivity”.

As for “QVQLVESGGGLVQAGGSLRLSCAASGIIFSRYAMGWYRQAPGKERELDAAISSRGTSTYYADSVKGRFTISRDNAKNTVYLQMNSLKPEDTAVYYCNAVSRPVRHKSTYDYWGQVTQVTVSS”, the “polyreactivity (PSR sort gate)” value is on record as “high polyreactivity”. The value for “QVQLVESGGGLVQAGGSLRLSCAASGIIFSRYAMGWYRQAPGKERELVAVISSSGGRTYYADSVKGRFTISRDNAKNTVYLQMNSLKPEDTAVYYCAAYTRTGSHLRAYYYWGQGTQVTVSS” was “high polyreactivity”; that for “QVQLVESGGGLVQAGGSLRLSCAASGIIFSSYAMGWYRQAPGKERELVADISYTGGSTYYADSVKGRFTISRDNAKNTVYLQMNSLKPEDTAVYYCAAGVYLHYSVDYWGQGTQVTVSS” was “low polyreactivity”; that for “QVQLVESGGGLVQAGGSLRLSCAASGIIFSSYVMGWYRKATGKERELVAAISSRGVSTYYADSVKGRFTISRDNAKNTVYLQMNSLKPEDTAVYYCNAKDKQGRKQFKLCAGYYLGQGTQVTVSS” was “high polyreactivity”. In the case of “QVQLVESGGGLVQAGGSLRLSCAASGIIFSVYAMGWYRQAPGKERELVAAITWSGSRTYYADSVKGRFTISRDNAKNTVYLQMNSLKPEDTAVYYCATVFRGFVEYEYWGQGTQVTVSS”, the “polyreactivity (PSR sort gate)” value is on record as “low polyreactivity”. Next, “QVQLVESGGGLVQAGGSLRLSCAASGIIFSWYDMGWYRQAPGKERELVAAISYRGSTNYADSVKGRFTISLDNAKNTVYLQMNSLKPEDTAVYYCNGPRRQYEYDYWGQGTQVTVSS”: “high polyreactivity”. Next, “QVQLVESGGGLVQAGGSLRLSCAASGIIFSYYAMGWYRQAPGKERELVADISSDGSTNYADSVKGRFTISRDNAKNTVYLQMNSLKPEDTAVYYCAAGYVHYGWFELDYWGQGTQVTVSS”: “low polyreactivity”.

“QVQLVESGGGLVQAGGSLRLSCAASGIIFSYYVMGWYRQAPGKERELVAAISRSGAITYYADSVKGRFTISRDNAKNTVYLQMNSLKPEDTSVYYCAAELVPYSYHLRLDYWGQGTQVTVSS”: the “polyreactivity (PSR sort gate)” value is “high polyreactivity”.

As to “QVQLVESGGGLVQAGGSLRLSCAASGIIFTKYAMGWYRQAPGTERELVAAITSGGRTNYADSVKGRFTISRDNAKNTDYLQMNSLKPEDTAVYYCAARYPSRDLLRRYKYWGQGTQVTVSS”, the “polyreactivity (PSR sort gate)” value is on record as “high polyreactivity”. “QVQLVESGGGLVQAGGSLRLSCAASGIIFTWYAMGWYRQAPGKERELVAAISGSGDITYYADSVKGRFTISRDNAKNTVFLQMNSLKPEDTAVYYCAADPWTYWEDYDYWGQGTQVTVSS”: the “polyreactivity (PSR sort gate)” value is given as “low polyreactivity”. The value for “QVQLVESGGGLVQAGGSLRLSCAASGIIFTYAIGWYRQAPGKERELVAAIDWRGGRTYYADSVKGRFTISRDNAKNTVYLHMNSLKREDTAVYYCGARLGGGTYYWGQGTQVTVSS” was “high polyreactivity”. The value for “QVQLVESGGGLVQAGGSLRLSCAASGIIFTYYAMGWYRQAPGKERELVAGISSSGGITYADSVKGRFTISRDNAKNTVYLQMNSLKPEDTAVYYCAAESYGRSETEDDYWGQGTQVTVSS” was “low polyreactivity”; that for “QVQLVESGGGLVQAGGSLRLSCAASGIIFTYYAMGWYTQAPGKERELVAAISSRGDSTYYADSVKGRFTISRDNAKNTVYLQMNSLKPEDTAVYYCNRYLSRPLRAMYYWGLGTQVTVSS” was “high polyreactivity”; that for “QVQLVESGGGLVQAGGSLRLSCAASGIIFVDNDMGWYRQAPGKERELVADISDSGGSTNYADSVKGRFTISRDNAKNTVYLQMNSLKPEDTAVYYCAADSADPTEYDYWGQGTQVSVSS” was “low polyreactivity”. The value for “QVQLVESGGGLVQAGGSLRLSCAASGIIFVDNVMGWYIQAPGKERELVAAIDYSGGSTYYADSVKGRFTISRDNAKNSVYLQMNSLKPEDTAVYYCAATDPRRRVRYGYWGQGTQVTVSS” was “low polyreactivity”.

On to “QVQLVESGGGLVQAGGSLRLSCAASGIIFVFYVMGWYRQAPGKERELVAAISGGGSTYYADSVKGRFTISRDNAKNTVYLQMNSLKPEDTAVYYCNADYDGGYYGDLSLYDYWGQGTQVTVSS”, for which the “polyreactivity (PSR sort gate)” value was “low polyreactivity”. Next, “QVQLVESGGGLVQAGGSLRLSCAASGIIFVGYAMGWYRQAPGKERELVAGINCGGSTNYADSVKGRFTISRDNAKNTVYFQMNSLKPEDTAVYYCAAYPFDYYGYDYWGLGTQVTVSS”: “low polyreactivity”. The value for “QVQLVESGGGLVQAGGSLRLSCAASGIIFVHYALGWYRQAPGKEWQLVAAITSGGSTKYADSVKGRFTISRDNAKNTVYLQMNSLKPEDTAVYYCAAGHYVYWYRYQLGGYNYWGIGTQVTVSS” was “high polyreactivity”; that for “QVQLVESGGGLVQAGGSLRLSCAASGIIFVIYAMVWYRQAPGKERELVAAISSSGGSTYYADSVKGRFTISRDNAKNTVYLLMNSLKPEDTAVYYCAVALSHYFGGYGYWGQGTQLTVSS” was “low polyreactivity”; that for “QVQLVESGGGLVQAGGSLRLSCAASGIIFVKNAMGWYRQAPGKERELVASISGSGGRTYYADSVKGRFTISRDNAKNTVYLQMKSLKPEDTAVYYCNTLLAPHARKARRHDYWGQGTQVTVSS” was “low polyreactivity”. Turning to “QVQLVESGGGLVQAGGSLRLSCAASGIIFVPNAMGWSRHPPGKERELVAAITGRGVSTYYADSVKGRFTISRDTAKKTVYLQMNSLKPEDTAVYYCAATLFSYSGGTHDYWGQGTQVTVSS”, the “polyreactivity (PSR sort gate)” value was “high polyreactivity”. With “QVQLVESGGGLVQAGGSLRLSCAASGIIFVRYAMGWYRQAPGKERELVAAISWSGGSTYYADSVKGRFTISRDNAKNTVYLQMNSLKPEDTAVYYCAADSHRTRGDARYYYWGQGTQVTVSS”, the “polyreactivity (PSR sort gate)” value was “high polyreactivity”. Take “QVQLVESGGGLVQAGGSLRLSCAASGIIFVWYAMGWYRQAPGKERELVAAIRSGGITNYADSVKGRFTISRDNAKNTVYLQMNSLKPEDTAVYYCDAPYRTDTGDDYWGQGTQVTVSS”: the “polyreactivity (PSR sort gate)” value was “low polyreactivity”. Regarding “QVQLVESGGGLVQAGGSLRLSCAASGIIFVYYAMGWYRQAPGKERELVAAISYSGGRTYYADSVKGRFTISRDNAKNTVYLQMNSLKPEDTAVYYCAAVDRRGYRYALDYWGQGTQVTVSS”, the “polyreactivity (PSR sort gate)” value is “high polyreactivity”.

Turning to “QVQLVESGGGLVQAGGSLRLSCAASGIIFVYYTMGWYRQAPGKERELVAAITSGGSTYYADSVKGRFTISRDNAKNTVYVQMNSLKPEDTAVYYCAAVGRPPYAGDRGYWGQGTQVTVSS”, the “polyreactivity (PSR sort gate)” value is “high polyreactivity”. Next, “QVQLVESGGGLVQAGGSLRLSCAASGIIFWFYAMGWYRQAPGKERELVAAISGDGDSTYYADSVKGRFTISRDNAKNTVYLQMNSLKPEDTAVYYCAAEWDPVFATDEDDYWGQGTQVTVSS”: “low polyreactivity”. The value for “QVQLVESGGGLVQAGGSLRLSCAASGIIFWGYAMGWYRQAPGKERELVAAISRGGSTYYADSVKGRFTISRDNAKNTVYLQMNSLKPEDTAVYYCAATGVRTWALDYWGQGTQVTVSS” was “high polyreactivity”; that for “QVQLVESGGGLVQAGGSLRLSCAASGIIFWRYAMGWYRQAPGKERELVASISWSGGSTSYADSVKGRFTISRDNAKNTVYLQMNSLKPEDTAVYYCAAVFYYRRRYYYWGQGTQVTVSS” was “high polyreactivity”; that for “QVQLVESGGGLVQAGGSLRLSCAASGIIFWRYAMGWYRQAPGKERELVATITSGGSTDYADSVKGRFTISRDNAKNTVYLQMNSLKPEDTEVYYCAALGYATGYWRYYYWGQGTQVTVSS” was “low polyreactivity”. The value for “QVQLVESGGGLVQAGGSLRLSCAASGIIFWTYTMGWYRQAPGKERELVAAISSGGSTKYADSVKGRFTISRDNAKNTVYLQMNSLKPEDTAVYYCAAYSAWYGYDYWGQGTQVTVSS” was “low polyreactivity”; that for “QVQLVESGGGLVQAGGSLRLSCAASGIIFWTYTMGWYRQAPGKERELVAAISSGGSTNYADSVKGRFTISRDNAKNTVYLQMNSLKPEDTAVYYCAKRRQYQRSYNYWGQGTQVTVSS” was “low polyreactivity”; that for “QVQLVESGGGLVQAGGSLRLSCAASGIIFWTYTMGWYRQAPGKERELVAAISSGGSTTYADSVKGRFTISRDNSMNTVFLQMNWLKPEDTAVYYCAKRRQYQRSYNYWGKGTQVTVSS” was “low polyreactivity”.

Values taken from the nanobody polyreactivity screen of Harvey et al. (2022).
